For one data set, the target named is T1, SDN1 RRM (NMR) (Arabidopsis thaliana, UniProt A3KPE8 305-409).
T1 sequence: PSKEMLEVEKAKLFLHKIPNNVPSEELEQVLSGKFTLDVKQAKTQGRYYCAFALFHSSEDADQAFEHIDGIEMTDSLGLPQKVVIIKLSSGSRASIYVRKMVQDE
Description: NMR titration; EMSA: 50 mM Tris pH 8.0, 100 mM NaCl, 1 mM DTT, no Mg2+, 2 nM RNA, on ice 30 min, 8% native PAGE in 0.5x TBE; NMR: 50 mM Na2HPO4 pH 7.4, 100 mM NaCl, 10% D2O. The note with it: protein: recombinant; tags: His-SUMO tag removed; 15N-labeled; single strand.

For data set [1], the target named is T2, SDN1 wild type (Arabidopsis thaliana, UniProt A3KPE8 2-409).
T2 sequence: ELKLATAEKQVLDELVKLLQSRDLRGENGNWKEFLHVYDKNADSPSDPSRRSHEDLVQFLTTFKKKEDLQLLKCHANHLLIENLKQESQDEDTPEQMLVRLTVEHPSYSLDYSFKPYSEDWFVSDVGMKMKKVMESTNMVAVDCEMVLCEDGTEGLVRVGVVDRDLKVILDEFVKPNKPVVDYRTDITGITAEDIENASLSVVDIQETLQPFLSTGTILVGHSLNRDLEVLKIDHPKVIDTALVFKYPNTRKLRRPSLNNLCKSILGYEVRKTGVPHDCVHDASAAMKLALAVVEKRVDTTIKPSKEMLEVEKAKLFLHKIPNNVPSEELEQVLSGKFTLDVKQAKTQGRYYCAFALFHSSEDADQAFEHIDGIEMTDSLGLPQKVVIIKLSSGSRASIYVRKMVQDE
Put plainly: crystal structure; 2 Mg2+; 9 of 10 nt seen, 2.8 Å; EMSA: 50 mM Tris pH 8.0, 100 mM NaCl, 1 mM DTT, no Mg2+, 2 nM RNA, on ice 30 min, 8% native PAGE in 0.5x TBE; NMR: 50 mM Na2HPO4 pH 7.4, 100 mM NaCl, 10% D2O. The note with it: protein: recombinant; tags: His-SUMO tag removed; single strand. (Mobility shift assays separate free from complexed probe on a gel.)

Data set [2] deals with T2, SDN1 wild type. Description: EMSA; no Mg2+; Kd,app in µM range, value only in figure; EMSA: 50 mM Tris pH 8.0, 100 mM NaCl, 1 mM DTT, no Mg2+, 2 nM RNA, on ice 30 min, 8% native PAGE in 0.5x TBE; NMR: 50 mM Na2HPO4 pH 7.4, 100 mM NaCl, 10% D2O. The note with it: protein: recombinant; tags: His-SUMO tag removed; label: 5' 32P; single strand.
Data set [3] deals with T2, SDN1 wild type. Description: UV crosslinking (5-iodoU, 312 nm); EMSA: 50 mM Tris pH 8.0, 100 mM NaCl, 1 mM DTT, no Mg2+, 2 nM RNA, on ice 30 min, 8% native PAGE in 0.5x TBE; NMR: 50 mM Na2HPO4 pH 7.4, 100 mM NaCl, 10% D2O. The note with it: protein: recombinant, tags: His-SUMO tag removed.
A further data set deals with T3, SDN1 ΔC (Arabidopsis thaliana, UniProt A3KPE8 2-302).
T3 sequence: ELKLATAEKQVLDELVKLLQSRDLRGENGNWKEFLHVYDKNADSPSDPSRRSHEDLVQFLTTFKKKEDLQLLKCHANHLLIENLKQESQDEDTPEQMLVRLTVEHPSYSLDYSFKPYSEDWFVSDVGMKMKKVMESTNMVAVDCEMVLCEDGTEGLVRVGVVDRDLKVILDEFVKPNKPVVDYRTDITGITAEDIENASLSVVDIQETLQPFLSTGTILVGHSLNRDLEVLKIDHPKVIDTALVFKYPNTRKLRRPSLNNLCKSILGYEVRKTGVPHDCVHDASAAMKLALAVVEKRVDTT
The data set is described as above. The note with it: protein: recombinant, tags: His-SUMO tag removed.

Where [4] appears, read: label: 5' 32P on target strand, unpaired miR166 3' end (T6-type), target 3' overhang 4 nt.

On to AGCCCAUUAG (ssRNA) [10 nt ssRNA (crystal, NMR)], for which the binding result with SDN1 RRM (NMR) and with SDN1 wild type [1] was “binds” in each case.
UUCGCUUGCAGAGAGAAAUCAC (ssRNA) [miR173 (22 nt RNA)]: the binding result with SDN1 wild type [2] is “binds”.

B1: miR166:5'-IUU (dsRNA)
RNA 1: UCGGACCAGGCUUCAUCCCCC
RNA 2: GAUUCCCUUGAAGCUUGGUCCGGAUUA
modifications: 5-iodoU at 3,4 of strand 2
Take B1: the binding result in the data set with SDN1 wild type [3] (setting [4]) is reported as “binds”.
For the molecule GAUUCCCUUGAAGCUUGGUCCGGAUUA (ssRNA, 5-iodoU at 25,26) [3'-IUU RNA], the binding result with SDN1 wild type [3] (label: 32P, single strand) was “binds”; in the data set with SDN1 ΔC (label: 32P, single strand) it was “binds”.
Consider GAUUCCCUUGAAGCUUGGUCCGGAUUA (ssRNA, 5-iodoU at 3,4) [5'-IUU RNA], for which the binding result with SDN1 wild type [3] (label: 32P, single strand) is reported as “binds”.

B2: miR166:3'-IUU (dsRNA)
RNA 1: UCGGACCAGGCUUCAUCCCCC
RNA 2: GAUUCCCUUGAAGCUUGGUCCGGAUUA
modifications: 5-iodoU at 25,26 of strand 2
Take B2: the binding result with SDN1 wild type [3] (setting [4]) and in the data set with SDN1 ΔC (setting [4]) was “binds” each time.
Turning to GAUUCCCUUGAAGCUUGGUCCGGAUUA (ssRNA, 5-iodoU at 15,16) [M-IUU RNA], the binding result in the data set with SDN1 wild type [3] (label: 32P, single strand) is given as “binds”.

Source of the values: PMC6123492, “Structural and biochemical insights into small RNA 3′ end trimming by Arabidopsis SDN1”.
